Assay [1] concerns the target BCL2 peptide Ac-…-amide (amino acids 41-54 of human BCL2 with linkers) (human). Briefly: imaging mass cytometry; peptide 2.50E-06 M in core; Ab 1 ug/ml.
Assay [2] has the same target. Put plainly: imaging mass cytometry; peptide 2.50E-08 M in core.
Assay [3] shares this target. Briefly: imaging mass cytometry; peptide 2.50E-08 M in core (second core); Ab 10 ug/ml.
Assay [4] addresses Bovine serum albumin (BSA; Ultra Pure) (bovine) (UniProt P02769). Briefly: imaging mass cytometry; no peptide (second background core); Ab 1 ug/ml.
Assay [5] concerns the target BCL2 peptide Ac-…-amide (amino acids 41-54 of human BCL2 with linkers) (human). Briefly: imaging mass cytometry; peptide 2.50E-07 M in core.
Assay [6] has the same target. Briefly: imaging mass cytometry; peptide 2.50E-08 M in core; Ab 5 ug/ml.
For assay [7] the target is unchanged. Briefly: imaging mass cytometry; peptide 2.50E-04 M in core (second core); Ab 1 ug/ml.
The target is the same in assay [8]. Put plainly: imaging mass cytometry; peptide 2.50E-07 M in core (second core); Ab 1 ug/ml.
For assay [9] the target is unchanged. Briefly: imaging mass cytometry; peptide 2.50E-06 M in core (second core); Ab 1 ug/ml.
Assay [10] shares this target. Briefly: imaging mass cytometry; peptide 2.50E-07 M in core; Ab 1 ug/ml.
Assay [11] shares this target. Briefly: imaging mass cytometry; peptide 2.50E-08 M in core (second core); Ab 5 ug/ml.

Sequence of BCL2 peptide Ac-…-amide (amino acids 41-54 of human BCL2 with linkers) (human) (peptide, as listed by the source): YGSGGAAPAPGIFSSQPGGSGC
Sequence of UniProt P02769 (P02769 25-607 limits assumed): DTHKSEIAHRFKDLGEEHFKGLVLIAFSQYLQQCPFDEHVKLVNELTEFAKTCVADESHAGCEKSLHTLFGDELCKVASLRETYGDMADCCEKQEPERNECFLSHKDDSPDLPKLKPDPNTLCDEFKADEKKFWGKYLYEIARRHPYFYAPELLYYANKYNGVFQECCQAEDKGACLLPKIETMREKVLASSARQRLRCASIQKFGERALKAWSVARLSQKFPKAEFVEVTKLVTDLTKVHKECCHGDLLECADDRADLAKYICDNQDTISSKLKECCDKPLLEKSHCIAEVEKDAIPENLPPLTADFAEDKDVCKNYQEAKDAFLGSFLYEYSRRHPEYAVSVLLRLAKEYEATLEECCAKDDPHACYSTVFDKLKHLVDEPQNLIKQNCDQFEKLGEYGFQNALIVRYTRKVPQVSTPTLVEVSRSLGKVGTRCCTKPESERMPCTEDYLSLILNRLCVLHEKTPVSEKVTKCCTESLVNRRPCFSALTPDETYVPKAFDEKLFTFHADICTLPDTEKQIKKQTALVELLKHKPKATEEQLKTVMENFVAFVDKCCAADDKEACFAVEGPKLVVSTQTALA

For Fluidigm EPR17509-^146Nd antibody, the Integrated Ion counts (per 150 micron square ROI) stood at 7750 ion counts in assay [1]; 1720 ion counts in [3]; 1310 ion counts in [4]; 976 ion counts in assay [6]; 42200 ion counts in assay [7]; 2380 ion counts in assay [8]. Moreover, the Integrated Ion counts (per 150 micron square ROI) in assay [9] was determined as 7700 ion counts; in assay [10], 1580 ion counts; in assay [11], 2070 ion counts. The Average Ion count in [2] was determined as 1310 ion counts; in assay [5], 1740 ion counts. Further, the values for the Ion count above background in assay [2] and in assay [5] were 134 ion counts and 562 ion counts, respectively. Moreover, the Moles ^146Nd Ab detected per ROI in assay [2] is 7.5e-20 mol; in assay [5], 3.15e-19 mol. Besides, the ^146Nd Ab/peptide in assay [2] came to 3.33%; in assay [5], 1.4%.

These data come from patent US20200292536A1.
